Values joined by “and” are separate entries in the source; they are usually repeats but may differ in a detail not shown here. Equal values may be shown once.
B1: Internalin B (ligand)
chain: AKVQAETITVPTPIKQIFSDDAFAETIKDNLKKKSVTDAVTQNELNSIDQIIANNSDIKSVQGIQYLPNVTKLFLNGNKLTDIKPLANLKNLGWLFLDENKVKDLSSLKDLKKLKSLSLEHNGISDINGLVHLPQLESLYLGNNKITDITVLSRLTKLDTLSLEDNQISDIVPLAGLTKLQNLYLSKNHISDLRALAGLKNLDVLELFSQECLNKPINHQSNLVVPNTVKNTDGSLVTPEIISDDGDYEKPNVKWHLPEFTNEVSFIFYQPVTIGKAKARFHGRVTQPLKEVYTVSYDVDGTVIKTKVEAGTRITAPKPPTKQGYVFKGWYTEKNGGHEWNFNTDYMSGNDFTLYAVFKAETTEKAVNLTRYVKYIRGNAGIYKLPREDNSLKQGTLASHRCKALTVDREARNGGKLWYRLKNIGWTKAENLSLDRYDKMEYDKGVTAYARVRNASGNSVWTKPYNTAGAKHVNKLSVYQGKNMRILREAKTPITTWYQFSIGGKVIGWVDTRALNTFYKQSMEKPTRLTRYVSANKAGESYYKVPVADNPVKRGTLAKYKNQKLIVDCQATIEGQLWYRIRTSSTFIGWTKAANLRAQK

Experiments:
[1] = target: Human Met-Fc chimera (human) (UniProt P08581); test: ELISA
[2] = target: Rat tail collagen type I, neutralized fibrillar (rat) (UniProt P02454); test: ELISA
[3] = target: Met receptor (human (endogenous in HeLa)) (UniProt P08581); test: cross-linking + co-IP
[4] = target: T1, Human Met-Fc chimera (human, UniProt P08581 25-932, fully glycosylated); test: ELISA
[5] = target: T1, Human Met-Fc chimera; test: ELISA; remark: listed apart in the source

T1 sequence (P08581 25-932, change not shown): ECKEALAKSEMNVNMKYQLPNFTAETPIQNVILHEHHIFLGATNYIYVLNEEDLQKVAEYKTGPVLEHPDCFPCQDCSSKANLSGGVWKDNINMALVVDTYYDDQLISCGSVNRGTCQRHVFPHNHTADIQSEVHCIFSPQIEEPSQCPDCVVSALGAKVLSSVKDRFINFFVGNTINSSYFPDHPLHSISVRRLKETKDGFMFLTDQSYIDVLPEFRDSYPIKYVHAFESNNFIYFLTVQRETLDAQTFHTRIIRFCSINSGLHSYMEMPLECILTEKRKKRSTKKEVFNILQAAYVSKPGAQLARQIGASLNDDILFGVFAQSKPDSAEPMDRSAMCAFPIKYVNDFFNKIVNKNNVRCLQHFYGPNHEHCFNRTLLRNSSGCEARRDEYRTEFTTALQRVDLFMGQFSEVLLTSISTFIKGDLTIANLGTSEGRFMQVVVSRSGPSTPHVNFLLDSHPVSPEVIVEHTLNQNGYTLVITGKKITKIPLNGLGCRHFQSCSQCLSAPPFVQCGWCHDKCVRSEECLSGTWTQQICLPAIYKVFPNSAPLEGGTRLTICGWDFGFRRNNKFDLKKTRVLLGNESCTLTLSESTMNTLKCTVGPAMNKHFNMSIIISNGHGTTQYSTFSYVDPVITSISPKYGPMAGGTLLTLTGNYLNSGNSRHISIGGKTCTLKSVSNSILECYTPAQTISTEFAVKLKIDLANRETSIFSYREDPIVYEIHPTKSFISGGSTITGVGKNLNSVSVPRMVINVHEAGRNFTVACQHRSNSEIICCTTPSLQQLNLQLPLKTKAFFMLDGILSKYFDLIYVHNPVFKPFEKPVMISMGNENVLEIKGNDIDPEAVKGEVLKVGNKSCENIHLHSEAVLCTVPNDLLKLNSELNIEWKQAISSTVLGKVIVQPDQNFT
Chain of Rat tail collagen type I, neutralized fibrillar (rat) (P02454 152-1207, chain 1 of 2): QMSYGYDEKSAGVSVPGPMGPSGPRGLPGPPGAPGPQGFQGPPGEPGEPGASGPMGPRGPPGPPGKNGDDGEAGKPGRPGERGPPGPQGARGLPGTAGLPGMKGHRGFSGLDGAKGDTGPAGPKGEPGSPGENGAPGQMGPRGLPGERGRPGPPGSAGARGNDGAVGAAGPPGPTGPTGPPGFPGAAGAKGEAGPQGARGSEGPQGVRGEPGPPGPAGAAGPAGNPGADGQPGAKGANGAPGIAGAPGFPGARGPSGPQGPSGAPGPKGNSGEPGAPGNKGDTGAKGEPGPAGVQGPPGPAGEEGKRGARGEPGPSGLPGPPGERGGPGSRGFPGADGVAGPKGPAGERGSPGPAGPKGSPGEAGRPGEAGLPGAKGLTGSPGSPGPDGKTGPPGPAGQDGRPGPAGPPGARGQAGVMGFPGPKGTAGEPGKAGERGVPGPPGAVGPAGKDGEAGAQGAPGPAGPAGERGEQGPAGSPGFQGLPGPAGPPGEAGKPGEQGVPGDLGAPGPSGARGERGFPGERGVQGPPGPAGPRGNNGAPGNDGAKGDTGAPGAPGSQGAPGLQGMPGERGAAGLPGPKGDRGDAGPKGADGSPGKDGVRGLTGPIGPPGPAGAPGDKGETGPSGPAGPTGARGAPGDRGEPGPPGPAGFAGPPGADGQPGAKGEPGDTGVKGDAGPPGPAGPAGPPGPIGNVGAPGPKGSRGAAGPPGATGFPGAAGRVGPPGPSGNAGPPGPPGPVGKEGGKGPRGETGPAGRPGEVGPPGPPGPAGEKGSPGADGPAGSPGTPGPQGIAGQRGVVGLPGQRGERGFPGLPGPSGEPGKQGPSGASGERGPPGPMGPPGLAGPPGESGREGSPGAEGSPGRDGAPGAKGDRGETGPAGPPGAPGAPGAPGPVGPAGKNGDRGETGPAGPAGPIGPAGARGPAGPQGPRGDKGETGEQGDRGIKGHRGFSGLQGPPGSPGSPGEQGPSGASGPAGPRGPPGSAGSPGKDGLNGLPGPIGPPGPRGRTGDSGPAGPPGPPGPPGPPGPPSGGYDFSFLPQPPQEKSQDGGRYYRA
Chain of Rat tail collagen type I, neutralized fibrillar (rat) (P02466 86-1125, chain 2 of 2, further chain): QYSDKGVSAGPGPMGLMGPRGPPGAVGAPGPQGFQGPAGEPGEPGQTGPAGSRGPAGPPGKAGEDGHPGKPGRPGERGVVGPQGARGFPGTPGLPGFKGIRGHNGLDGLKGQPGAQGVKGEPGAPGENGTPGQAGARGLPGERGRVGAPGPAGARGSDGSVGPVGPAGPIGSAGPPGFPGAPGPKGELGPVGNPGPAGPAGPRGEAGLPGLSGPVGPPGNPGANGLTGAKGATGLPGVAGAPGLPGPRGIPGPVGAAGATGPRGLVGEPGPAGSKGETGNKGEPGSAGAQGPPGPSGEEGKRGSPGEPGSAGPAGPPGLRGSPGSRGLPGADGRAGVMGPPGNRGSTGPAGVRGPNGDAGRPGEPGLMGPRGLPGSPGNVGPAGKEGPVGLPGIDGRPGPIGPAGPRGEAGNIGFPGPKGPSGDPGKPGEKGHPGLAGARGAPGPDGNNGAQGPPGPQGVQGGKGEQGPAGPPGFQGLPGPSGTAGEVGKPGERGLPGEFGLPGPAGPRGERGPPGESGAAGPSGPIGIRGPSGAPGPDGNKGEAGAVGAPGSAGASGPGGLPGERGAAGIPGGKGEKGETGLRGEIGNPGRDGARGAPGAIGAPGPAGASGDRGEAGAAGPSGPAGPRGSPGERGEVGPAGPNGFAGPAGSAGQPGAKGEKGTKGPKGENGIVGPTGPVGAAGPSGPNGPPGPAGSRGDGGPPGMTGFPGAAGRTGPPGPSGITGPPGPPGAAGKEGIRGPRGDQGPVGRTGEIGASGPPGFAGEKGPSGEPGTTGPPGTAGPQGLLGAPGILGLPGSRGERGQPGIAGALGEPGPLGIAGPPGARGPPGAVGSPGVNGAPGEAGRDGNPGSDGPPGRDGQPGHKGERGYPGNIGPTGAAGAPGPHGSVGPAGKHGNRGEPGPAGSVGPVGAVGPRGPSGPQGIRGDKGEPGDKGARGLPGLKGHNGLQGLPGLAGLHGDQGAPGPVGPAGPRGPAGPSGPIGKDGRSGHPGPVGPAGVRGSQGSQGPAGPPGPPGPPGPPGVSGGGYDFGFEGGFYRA
Chain of Human Met-Fc chimera (human) (P08581 25-932, change not shown): as the sequence (P08581 25-932, change not shown) above
Chain of Met receptor (human (endogenous in HeLa)) (P08581 25-1390): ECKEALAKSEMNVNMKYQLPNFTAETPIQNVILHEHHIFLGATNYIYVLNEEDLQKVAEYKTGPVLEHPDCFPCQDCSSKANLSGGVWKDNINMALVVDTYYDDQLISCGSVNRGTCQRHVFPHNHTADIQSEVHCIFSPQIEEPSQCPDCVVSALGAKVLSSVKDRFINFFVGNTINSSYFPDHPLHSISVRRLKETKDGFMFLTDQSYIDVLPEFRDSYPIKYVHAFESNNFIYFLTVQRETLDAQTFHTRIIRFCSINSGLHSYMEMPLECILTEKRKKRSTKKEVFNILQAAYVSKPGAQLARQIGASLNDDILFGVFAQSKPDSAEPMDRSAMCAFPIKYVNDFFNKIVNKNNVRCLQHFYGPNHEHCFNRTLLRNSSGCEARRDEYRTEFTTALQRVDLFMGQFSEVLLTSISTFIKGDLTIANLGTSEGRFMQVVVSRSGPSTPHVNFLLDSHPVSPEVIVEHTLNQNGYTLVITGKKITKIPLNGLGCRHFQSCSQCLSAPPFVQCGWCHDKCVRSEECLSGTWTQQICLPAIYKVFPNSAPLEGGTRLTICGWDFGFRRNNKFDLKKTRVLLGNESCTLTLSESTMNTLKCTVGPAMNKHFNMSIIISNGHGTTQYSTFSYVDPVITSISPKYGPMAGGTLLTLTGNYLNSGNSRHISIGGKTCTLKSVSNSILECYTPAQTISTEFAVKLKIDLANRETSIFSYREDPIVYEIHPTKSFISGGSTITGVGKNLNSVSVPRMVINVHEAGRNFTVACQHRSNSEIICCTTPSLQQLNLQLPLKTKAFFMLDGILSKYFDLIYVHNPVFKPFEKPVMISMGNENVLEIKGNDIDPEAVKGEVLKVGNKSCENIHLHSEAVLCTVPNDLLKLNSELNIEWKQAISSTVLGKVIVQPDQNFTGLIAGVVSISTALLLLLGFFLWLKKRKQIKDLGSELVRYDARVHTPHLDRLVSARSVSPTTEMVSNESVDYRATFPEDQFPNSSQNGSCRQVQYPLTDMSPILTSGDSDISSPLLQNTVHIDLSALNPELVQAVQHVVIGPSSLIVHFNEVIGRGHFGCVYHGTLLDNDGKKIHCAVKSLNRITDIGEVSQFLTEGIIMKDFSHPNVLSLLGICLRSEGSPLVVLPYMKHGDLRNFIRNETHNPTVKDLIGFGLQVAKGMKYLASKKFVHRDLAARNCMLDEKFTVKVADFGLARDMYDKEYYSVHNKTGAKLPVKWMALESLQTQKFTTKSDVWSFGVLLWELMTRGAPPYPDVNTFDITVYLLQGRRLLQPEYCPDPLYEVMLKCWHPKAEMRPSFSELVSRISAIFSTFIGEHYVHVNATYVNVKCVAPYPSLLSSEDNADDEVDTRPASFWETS

| Molecule | Kd [1] | Kd [2] | stoichiometry N [3] | IC50 [4] | Kd [5] |
| --- | --- | --- | --- | --- | --- |
| Decorin protein core (from UniProt P07585 31-359) (ligand) | 1.5 nM | 0.28 nM | 1 | – | – |
| B1 | – | – | – | ~120 nM and ~180 nM | 2.16 nM |

— article PMC2711571 (The Journal of Cell Biology, 2009)
